Measurements published in publication doi:10.1101/209445, “Large conformational changes in FtsH create an opening for substrate entry” (bioRxiv, 2017).

Tests used:
[1] = molecular target: the molecule itself; test: negative-stain electron microscopy; SEC peak 1 (dodecamer fraction), 3% uranyl acetate; 15000 particles, 2D class averages; 3D map with no symmetry imposed, 25 Å; two hexamers in a single LMNG micelle
[2] = molecular target: the molecule itself; test: native gel or EMSA; Native PAGE (Mini-PROTEAN TGX precast gel) of SEC peak 2 (13.4 mL)

B1: Full-length Aquifex aeolicus FtsH (enzyme, UniProt O67077 1-634, looked up)
chain: MNALKNFFIWAIIIGAAIVAFNLFEGKREFTTKVSLNEVVKLVEEGKVSYAEVRGNTAIIQTKDGQKLEVTLPPNTNLVDKMVEKGVRVEVANPEPPGGWLVNVFLSWLPILFFIGIWIFLLRQMSGGGNVNRAFNFGKSRAKVYIEEKPKVTFKDVAGIEEVKEEVKEIIEYLKDPVKFQKLGGRPPKGVLLYGEPGVGKTLLAKAIAGEAHVPFISVSGSDFVEMFVGVGAARVRDLFETAKKHAPCIIFIDEIDAVGRARGAIPVGGGHDEREQTLNQLLVEMDGFDTSDGIIVIAATNRPDILDPALLRPGRFDRQIFIPKPDVRGRYEILKVHARNKKLAKDVDLEFVARATPGFTGADLENLLNEAALLAARKGKEEITMEEIEEALDRITMGLERKGMTISPKEKEKIAIHEAGHALMGLVSDDDDKVHKISIIPRGMALGVTQQLPIEDKHIYDKKDLYNKILVLLGGRAAEEVFFGKDGITTGAENDLQRATDLAYRMVSMWGMSDKVGPIAIRRVANPFLGGMTTAVDTSPDLLREIDEEVKRIITEQYEKAKAIVEEYKEPLKAVVKKLLEKETITCEEFVEVFKLYGIELKDKCKKEELFDKDRKSEENKELKSEEVKEEVV
notes: The protomer is the molecule; The construct came from U. Baumann; also called AaFtsH; LMNG-AaFtsH; source: E. coli, overexpressed (pET22a); extracted from purified membranes with LMNG; purified (Ni-NTA/HisTrap, SEC Superose 6)
stoichiometry N [1]: 12 | stoichiometry N [2]: 6
